Assay results reported in PMC5800599.

Key:
Experiment in all cases: SPR; Fc immobilised on a CM5 chip by amine coupling (400-1000 RU), mFcγRIV flowed over; Biacore T100; 25°C; 20 mM MOPS, 100 mM sodium chloride, 0.05% P20, 1 μM bovine serum albumin; mean of at least two independent experiments
[1] = biological target: mouse IgG2b Fc I300L, complex-type N-glycan (mouse)
[2] = biological target: mouse IgG2b Fc I300L, truncated (1)GlcNAc N-glycan (mouse)
[3] = biological target: mouse IgG2b Fc I300L/K326R/D327A, complex-type N-glycan (mouse)
[4] = biological target: mouse IgG2b Fc I300L/K326R/D327A, truncated (1)GlcNAc N-glycan (mouse)
[5] = biological target: mouse IgG2b Fc, complex-type N-glycan (mouse)
[6] = biological target: mouse IgG2b Fc, truncated (1)GlcNAc N-glycan (mouse)
[7] = biological target: mouse IgG2c Fc (residues 224-447), complex-type N-glycan (mouse)
[8] = biological target: mouse IgG2c Fc (residues 224-447), truncated (1)GlcNAc N-glycan (mouse)
[9] = biological target: mouse IgG2c Fc L300I, complex-type N-glycan (mouse)
[10] = biological target: mouse IgG2c Fc L300I, truncated (1)GlcNAc N-glycan (mouse)
[11] = biological target: mouse IgG2c Fc L300I/R326K/A327D, complex-type N-glycan (mouse)
[12] = biological target: mouse IgG2c Fc L300I/R326K/A327D, truncated (1)GlcNAc N-glycan (mouse)

B1: mouse Fc γ receptor IV (receptor)
chain: QAGLQKAVVNLDPKWVRVLEEDSVTLRCQGTFSPEDNSIKWFHNESLIPHQDANYVIQSARVKDSGMYRCQTALSTISDPVQLEVHMGWLLLQTTKWLFQEGDPIHLRCHSWQNRPVRKVTYLQNGKGKKYFHENSELLIPKATHNDSGSYFCRGLIGHNNKSSASFRISLGD
B1 gave a Kd [1] of 15 nM, a Kd [2] of 1800 nM and a Kd [3] of 8 nM. For the same binder, the Kd [4] was 1300 nM, the Kd [5] was 18 nM and the Kd [6] was 2800 nM. The Kd [7] was 12 nM, the Kd [8] was 600 nM and the Kd [9] was 9 nM. The Kd [10] was 1000 nM, the Kd [11] was 9 nM and the Kd [12] was 1100 nM.
